pKd: −log10 of the molar value.

Experimental findings from patent publication US20040063912A1 are described below.

Assay [1] addresses purified, soluble huFcRn (human) (UniProt P55899). The assay is described as follows: Biacore (SPR), purified soluble huFcRn. On the technique in general: SPR reads the build-up and loss of mass on a sensor chip optically.
Assay [2] deals with FcRn. The assay is described as follows: assay not stated; compared with EPO-Fc with native Fc.
The target in assay [3] is EPO receptor (EpoR). The assay can be described thus: in vitro binding to EpoR; method not stated.

IgG1 (antibody) had a pKd in assay [1] of 8.10. Take “mutated EPO-Fc (Fc modified in three critical amino acid residues in the Fc domain: I253A, H310A, and H435A) (Fc fusion)”: the reduction in FcRn binding in assay [2] was over 90%. In assay [3], “native huEPO (from UniProt P01588 28-193) (ligand)” had a negative-log Kd (pKd) of 9.70.

As a reminder, the pKd is −log10 of the Kd, conventionally taken in molar units.
